In assay [1] the target is T1, VEGF (UniProt P15692-4 27-191, limits assumed).
T1 construct: also called VEGF-A; vascular endothelial growth factor
The assay can be described thus: VEGFR1 blocking ELISA: antibody pre-incubated with VEGF, added to a VEGFR1-coated plate. For orientation: An ELISA detects its analyte on a solid surface through an enzyme-linked reagent.

Assay [2] concerns the target T1, VEGF. As to the kind of experiment: Biacore SPR, both antibodies tested under the same conditions. The text has this:
(§1) Data was fit with a bivalent model for affinity determination.
For orientation: SPR reads the build-up and loss of mass on a sensor chip optically.

Assay [3] has as its target T1, VEGF. As to the kind of experiment: competition ELISA: titrated antibody and biotinylated bevacizumab added to a VEGF-coated plate, bound biotinylated bevacizumab detected with Strep-HRP; competitor: biotinylated bevacizumab.
For assay [4], the target named is T1, VEGF. The assay can be described thus: VEGFR2 blocking ELISA: antibody pre-incubated with VEGF, added to a VEGFR2-coated plate.
In assay [5] the target is T1, VEGF. As to the kind of experiment: Biacore SPR, VEGF immobilized on the chip, antibody as analyte, bivalent model fit.
Source text: as §1

Assay [6] has as its target T1, VEGF. As to the kind of experiment: summary table of MAb7392 characterization; affinity by Biacore, rounded form of the value in Table 2; summary Table 6, rounded value.
Source text: as §1

T1 sequence (P15692 other isoform, or with tags, fused parts or gaps limits assumed): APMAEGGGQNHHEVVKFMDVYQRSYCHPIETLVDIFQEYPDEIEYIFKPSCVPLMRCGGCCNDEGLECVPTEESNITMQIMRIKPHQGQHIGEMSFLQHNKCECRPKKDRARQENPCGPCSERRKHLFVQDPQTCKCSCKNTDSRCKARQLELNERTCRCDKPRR

B1: MAb7392 (antibody, V domains shown)
VH: QVQLVQSGAELRKPGASVKISCKASGYSLTYYGMNWVRQAPGQGLEWMGWINTFTGDSTYAQDFTGRFVFSLDTSVSTAYLQISSLKAEDMAMYYCAKYPHYYGSSHWYFDVWGQGTTVTVSS
VL: EIVLTQSPATLSVSPGERATLSCRASQSVNSNLAWYQQKPGQAPRVLIYGASTRATGIPARFSGSGSGTEFTLTISSLQSEDFAVYYCQQYSDIPWTFGQGTKLEIK
notes: also called H7230 + L7104
Broadly, the IC50 is the concentration at which inhibition is half-maximal. High values mean lower potency, low ones higher potency. As to B1, the values for the IC50 in assay [1] and in assay [4] were 80 pM and 180 pM, respectively. In addition, the “fold better affinity than bevacizumab” value in assay [2] was roughly 4 fold. Further, in assay [3], the “IC50 (read off the curve)” value is roughly 600 pM. The Kd turned out to be 910 pM in assay [5] and 900 pM in assay [6].
